# Test results reported in patent US20250276075A1, “METHODS OF TREATING AXL-EXPRESSING CANCERS WITH ANTI-AXL ANTIBODIES, ANTIBODY FRAGMENTS AND THEIR IMMUNOCONJUGATES” (BIOATLA, INC., priority 2020, published 2025).
# B1: CAB-Axl-ADC: anti-Axl antibody conjugated to a model toxin (e.g., gemcitabine), conditionally active antibody-drug conjugate (conjugate)
# VH: EVQLVQSGAEVKKPGATVKISCKVSGYSFWGATMNWIRQPPGKGLEWIGLIKPSNGGTSYNQKFKGRVTISADKSISTAYLQWSSLKASDTAMYYCAHGHYESYEAMDYWGQGTLVTVSS
# VL: DIQMTQSPSSLSASVGDRVTITCKASQDVVSAVAWYQQKPGQAPRLLIYWQDTRHTGVPSRFSGSGSGTEFTLTISSLQPDDFATYYCQEHFSPPLTFGQGTKVEIK
# Columns and labels:
# [1] = tested on: MiaPaCa2 xenograft tumors; experiment: MiaPaCa2 xenograft tumor study in mice; format: in vivo; conditions: 1 mg/kg twice weekly for 3 weeks; in comparison with the controls
# Protocol: The CAB-Axl-ADC was then injected into mice bearing MiaPaCa2 xenograft tumors at a dose of 1 mg/kg twice weekly for 3 weeks. Several controls were used in this study, including naked CAB (anti-Axl antibody with no conjugation), vehicle, the toxin alone (unconjugated gemcitable), control ADC, an affinity matching anti-Axl ADC (AM ADC).
# A549 cells = experiment: Conditional cell killing by CAB-Axl-ADC (model toxin) at pH 6.0 and 7.4; format: cell-based; conditions: FIG. 11
# From the text: The anti-Axl antibody of the present invention was conjugated to a model toxin (e.g., gemcitabine) to produce a conditionally active antibody-drug conjugate (CAB-Axl-ADC). The CAB-Axl-ADC was first tested to confirm that the conditional cell killing activity was not altered by the drug conjugation process.
molecule,measurement,setting,value
B1,reduction in the size of the tumor,[1],significantly greater reduction in the size of the tumor
same,cell killing at pH 6.0 versus pH 7.4,A549 cells,killed significantly more cells at pH 6.0 than at pH 7.4
